B1: K proteinase: protease (Boehringer) (protein, UniProt P06873 106-384, looked up)
Proteinase K: AAQTNAPWGLARISSTSPGTSTYYYDESAGQGSCVYVIDTGIEASHPEFEGRAQMVKTYYYSSRDGNGHGTHCAGTVGSRTYGVAKKTQLFGVKVLDDNGSGQYSTIIAGMDFVASDKNNRNCPKGVVASLSLGGGYSSSVNSAAARLQSSGVMVAVAAGNNNADARNYSPASEPSVCTVGASDRYDRRSSFSNYGSVLDIFGPGTSILSTWIGGSTRSISGTSMATPHVAGLAAYLMTLGKTTAASACRYIADTANKGDLSNIPFGTVNLLAYNNYQA
B2: Soluble AGPPase: soluble isoform of AGPPase purified from barley leaves, a germin-like glycoprotein (protein)
chain: MANAMLLPVLVSFLVLPFSAMALTQDFCVADLSCSDTPAGYPCKTGVGAGDFYYHGLAAAGNTSNLIKAAVTPAFVGQFPGVNGLGISAARLDIAVGGVVPMHTHPAASELLFVTEGTILAGFISSSSNTVYTKTLYKGDIMVFPQGLLHYQYNGGSSSAVALVAFSGPNPGLQITDYALFANNLPSAVVEKVTFLDDAQVKKLKSVLGGSG
modifications: Hordeum vulgare cv. Scarlett; Soluble AGPPase deduced from cDNA
notes: soluble isoform of AGPPase purified from barley leaves, a germin-like glycoprotein

What was measured:
[1] = test system: AGPPase (soluble and particulate isoforms); assay: AGPPase enzymatic assay (two-step spectrophotometric determination of G1P produced from ADPG); type: biochemical, barley (Hordeum vulgare), tomato (Lycopersicon sculentum)
[2] = Stability of AGPPase to pH and temperature; type: physicochemical; conditions: 65° C. for 30 minutes

| Molecule | Resistance of AGPPase to ionic detergents and proteases [1] | Heat resistance of soluble AGPPase [2] |
| --- | --- | --- |
| B1 | resistant |  |
| B2 |  | resistant |

Reference: patent US7205150B2, “Transgenic plants over-expressing plant ADP-glucose pyrophosphatase” (Universidad Publica de Navarra, priority 2000, dated 2007)
